Test results from the supplement of paper PMC7125110.
± gives the standard error. For some assays here: Fewer inactive variants are shown than the library holds.

B1: glmS ribozyme (parent)
chain: AUAAAAGCGCCAGAACUACAGAAAUGUAGUUGACGAGGAGGAGGUUUAUCGAAUUUUCGGCGGAUGCCUCCAAA

Tests used:
Conditions in all cases: with glucosamine-6-phosphate
[1] = variants of: B1; assay: kcat; higher = faster cleavage; RNA array
Outline: (§1)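 On sequenced MiSeq chips, barcoded ribozyme variants were made in situ by E. coli RNA polymerase and followed at 37 °C through a hybridised Cy3 probe. Glucosamine-6-phosphate was flowed in at 40 μM to 10 mM in HEPES/KCl/Mg(OAc)2 buffer. Exponential fits to normalised per-tile medians gave kobs, and weighted Michaelis–Menten fits gave kcat and KM.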

[2] = variants of: B1; assay: self-cleavage kobs at 640 uM GlcN6P; higher = faster cleavage; RNA array
Outline: as §1

[3] = variants of: B1; assay: self-cleavage kobs at 2500 uM GlcN6P; higher = faster cleavage; RNA array
Outline: as §1

[4] = variants of: B1; assay: self-cleavage kobs at 10000 uM GlcN6P; higher = faster cleavage; RNA array
Outline: as §1

[5] = variants of: B1; assay: KM; higher = weaker cofactor use; RNA array
Outline: as §1

[6] = variants of: B1; assay: self-cleavage kobs at 160 uM GlcN6P; higher = faster cleavage; RNA array
Outline: as §1

[7] = variants of: B1; assay: self-cleavage kobs at 40 uM GlcN6P; higher = faster cleavage; RNA array
Outline: as §1

Row | Variant | kcat [1] [s⁻¹] | self-cleavage kobs at 640 uM GlcN6P [2] [s⁻¹] | self-cleavage kobs at 2500 uM GlcN6P [3] [s⁻¹] | self-cleavage kobs at 10000 uM GlcN6P [4] [s⁻¹] | KM [5] [µM] | self-cleavage kobs at 160 uM GlcN6P [6] [s⁻¹] | self-cleavage kobs at 40 uM GlcN6P [7] [s⁻¹]
1 | AUAAAAGCGCCAGAACUACAGAAAUGUAGUUGACGAGGAGAAGGUUUAUCGAAUUUUCGGCGGAUUCCUACAAA [G41A G66U C70A] | 0.000127 ± 3e-05 | 9.26e-05 ± 3.3e-05 | 6.32e-05 ± 2.8e-05 | 0.000131 ± 2e-05 |  |  | 
2 | AUAAAAGCGCCAGAACUACAGAAAUGUAGUUGACGAGGAGGAGGUUUUUCGAAUUUUCGGCGGAUACCUCCAAA [A48U G66A] | 0.000466 ± 2.8e-05 |  | 0.000123 ± 2.3e-05 | 0.00027 ± 4.1e-05 | 7160 ± 740 |  | 
3 | AUAAAAGCGCCAGAACUACAGAAAUGUAGUUGACGAGGAGGAGGUUCAUCGAAUUUUUGGCGGAUGCCUCCAAA [U47C C58U] | 0.000109 ± 7.3e-06 |  |  | 4.92e-05 ± 8.1e-06 |  |  | 
4 | AUAAAAGCGCCAGAACUACAGAAAUGUAGUUGACGAGGAGGAGGAUUAUCGAAUUUUAGGCGGAUGCCUCCAAA [U45A C58A] | 0.00117 ± 0.00038 | 0.000188 ± 3.8e-05 | 0.000822 ± 0.00019 | 0.000803 ± 0.00016 |  |  | 
5 | AUAAAAGCACCAGAACUACAGAAAUGUAGUUGACGAGGAGGAGGUUUAUCGAAUAUUCGGCGGAUGCCUCCAAA [G9A U55A] | 2.49e-05 ± 5.6e-07 |  |  | 2.18e-05 ± 9.9e-06 | 1410 ± 200 |  | 
6 | AUAAAAGCGCCAAAACUACAGAAAUGUAGUUGACGAGGAGGAGGUUUAUCGAAUUGUCGGCGGAUGCCUCCAAA [G13A U56G] | 0.000892 ± 0.0002 | 0.000128 ± 1.8e-05 | 0.000264 ± 5.9e-05 | 0.000696 ± 8.2e-05 | 3800 ± 1300 | 4.73e-05 ± 9.8e-06 | 
7 | AUAAAAGCGCCAGAGCUACAGAAAUGUAGUUGACGAGGAGGAGGUUUAUCGAAUUUUCGGCGGCUGCCUCCAAA [A15G A64C] | 0.000162 ± 9.6e-06 | 3.75e-05 ± 6.6e-06 | 9.56e-05 ± 1.6e-05 | 0.00013 ± 2.2e-05 | 2040 ± 230 |  | 
8 | AUAAAAGCGCCAUAACUACAGAAAUGUAGUUGACGCGGAGGAGGUUUAUCGAAUUUUCGGCGGAUGCCUCCAAA [G13U A36C] | < 1e-05 |  |  | < 1e-05 |  |  | 
9 | AUAAAAGCGCCACAACUACAGAAAUGUAGUUGACGAGGAGGAGGUUUAUCGAAUUGUCGGCGGAUGCCUCCAAA [G13C U56G] | 0.000107 ± 9.4e-06 |  | 5.37e-05 ± 1.7e-05 | 8.26e-05 ± 1.2e-05 | 2860 ± 820 |  | 
10 | AUAAAAGCGCCAGAACUACAGAAAUGUAGUUGACGAGGAGGAGGUUUAUCGACUUUUCGGCGGGUGCCUCCAAA [A53C A64G] | 0.00338 ± 0.00072 | 0.00177 ± 0.00058 | 0.00249 ± 0.0011 | 0.00277 ± 0.00054 | 1710 ± 540 | 0.000218 ± 9.8e-05 | 7.76e-05 ± 1.7e-05
11 | AUAAAAGCGCCAGAACUACAGAAAUGUAGUUGACGAGGAGUCGGUUUAUCGAAUUUUCGGCGGAUGCCUCCAAA [G41U A42C] | 1.89e-05 ± 1.4e-06 |  |  |  | 2750 ± 590 | < 1e-05 | < 1e-05
12 | AUAAAAGCGCCAGAACUACAGAAAUGUAGUUAACGAGGAGGAGGUUUAUCGCAUUUUCGGCGGAUGCCUCCAAA [G32A A52C] | < 1e-05 | < 1e-05 |  | < 1e-05 | 128 ± 28 |  | < 1e-05
13 | AUAAAAGCGCCAGAACUACAGAAAUGUAGGUGACGAGGAGGAGGUUUGUCGAAUUUUCGGCGGAUGCCUCCAAA [U30G A48G] | < 1e-05 |  |  |  |  | < 1e-05 | < 1e-05
14 | AUAAAAGCGCCAGAACUACAGAAAUGUAGUUGACGAGGAGGAGGUUUAUCGAAUUUUCGGCGGGUGCCUCUAAA [A64G C71U] | 0.00692 ± 0.0014 | 0.00177 ± 0.00015 | 0.00386 ± 0.00036 | 0.00552 ± 0.00084 | 2040 ± 540 | 0.000417 ± 4.5e-05 | 0.000158 ± 1.6e-05
15 | AUAAAAGCGCCAGAACUACAGAAAUGUAGUUAACGAGGAGGAGGUUUAUCGAAUUUUUGGCGGAUGCCUCCAAA [G32A C58U] | 6.81e-05 ± 1.1e-05 | 3.37e-05 ± 1.6e-05 | 4.13e-05 ± 1.1e-05 | 6.46e-05 ± 1.3e-05 |  |  | < 1e-05
16 | AUAAAAGCGCCAGAACUACAGAAAUGUAGAUGACGAGGAGGAGGUUUAUCGAAUUUUCGGCGGAUGCCUCCAAA [U30A] | 0.0142 ± 0.0014 | 0.00244 ± 0.00012 | 0.00727 ± 0.00029 | 0.0114 ± 0.00039 | 2550 ± 310 | 0.000758 ± 6.8e-05 | 0.000227 ± 5e-06
17 | AUAAAAGCGCCAGAACUACAGAAAUGUAGAUGACGAGGAGGAGGUUUAUCGAAUCUUCGGCGGAUCCCUCCAAA [U30A U55C G66C] | 8.18e-05 ± 2.7e-05 |  | 0.000101 ± 2e-05 | 6.89e-05 ± 1.1e-05 |  |  | 
18 | AUAAAAGCGCCAGAACUACAGAAAUGUAGUUGACGAGGAGGAGGUUUAUCGAAUCUUCGGCGGCUGCCUCCAAA [U55C A64C] | 1.63e-05 ± 1.9e-06 |  |  |  |  | < 1e-05 | 
